Experimental data taken from patent US20030113743A1 (BAYLOR COLLEGE OF MEDICINE HYBRITECH, published 2003).

What was measured:
Experiment in all cases: covalent complex formation, SDS-PAGE and Western blot with HK1G586.1
alpha 2-antiplasmin = target: T1, alpha 2-antiplasmin (human, UniProt P08697 40-491, limits assumed)
T1 construct: Serpin, used at 20 µM; also called α2-antiplasmin; 1-antiplasmin
T1 sequence (looked up): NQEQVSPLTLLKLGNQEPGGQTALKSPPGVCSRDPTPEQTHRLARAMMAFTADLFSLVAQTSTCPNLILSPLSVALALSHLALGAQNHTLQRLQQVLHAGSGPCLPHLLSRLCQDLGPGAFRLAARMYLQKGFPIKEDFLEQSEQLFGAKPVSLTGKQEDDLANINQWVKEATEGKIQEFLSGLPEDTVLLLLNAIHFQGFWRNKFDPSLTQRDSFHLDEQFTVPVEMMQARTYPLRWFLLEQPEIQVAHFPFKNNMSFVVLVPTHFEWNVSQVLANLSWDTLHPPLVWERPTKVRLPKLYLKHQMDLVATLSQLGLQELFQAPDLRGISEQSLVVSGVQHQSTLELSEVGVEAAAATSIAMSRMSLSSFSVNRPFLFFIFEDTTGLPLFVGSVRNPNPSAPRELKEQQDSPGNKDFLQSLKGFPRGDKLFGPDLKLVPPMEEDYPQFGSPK
Procedure: (§1) FIG. 18 depicts Western blot analysis of hK2 incubated with protease inhibitors. Each sample was separated on a 8-25% gradient SDS-PAGE, blotted and probed with HK1G586.1. hK2 was incubated for 4 hours at 37° C. with the following inhibitors: Lane 1, antichymotrypsin (ACT); lane 2, alpha 2-antiplasmin; lane 3, anti-thrombin III; lane 4, alpha 1-protease inhibitor (anti-trypsin); lane 5, alpha 2-macroglobulin; lanes 1 and 2 show a covalent complex of the predicted Mr of 90-100 kD. Serpin inhibitors were employed at 20 μM, macroglobulin at 2.8 μM, and hK2 at 0.175 μM.
(§2) To test for covalent complex formation, 0.175 μM hK2 was incubated with 20 μM of inhibitor at pH 8 in 100 mM borate buffer. Inhibitors tested were 1-antichymotrypsin, 1-antitrypsin, 1-antiplasmin, antithrombin and 2-macroglobulin. To 5 μl of hK2 (10 μg/ml) was added the calculated μg of inhibitor prepared in 100 mM borate buffer and, if needed, each sample brought up to a total volume of 10 μl. Samples were incubated for 3 hours at 37° C. whereupon 1.5 μl of 7 X PhastSystem SDS sample buffer containing 35% 2-mercaptoethanol was added and the sample boiled for 3 minutes in a water bath. Samples were diluted 1/4 in SDS sample buffer prior to application to SDS/PAGE and Western analyses.

[1] = target: T2, α1-antitrypsin (alpha 1-protease inhibitor) (human, UniProt P01009 25-418)
T2 construct: Serpin, used at 20 µM
Procedure: as §1, §2

antichymotrypsin (ACT) = target: T3, antichymotrypsin (ACT) (human, UniProt P01011 24-423)
T3 construct: Serpin, used at 20 µM; also called 1-antichymotrypsin
T3 sequence (looked up): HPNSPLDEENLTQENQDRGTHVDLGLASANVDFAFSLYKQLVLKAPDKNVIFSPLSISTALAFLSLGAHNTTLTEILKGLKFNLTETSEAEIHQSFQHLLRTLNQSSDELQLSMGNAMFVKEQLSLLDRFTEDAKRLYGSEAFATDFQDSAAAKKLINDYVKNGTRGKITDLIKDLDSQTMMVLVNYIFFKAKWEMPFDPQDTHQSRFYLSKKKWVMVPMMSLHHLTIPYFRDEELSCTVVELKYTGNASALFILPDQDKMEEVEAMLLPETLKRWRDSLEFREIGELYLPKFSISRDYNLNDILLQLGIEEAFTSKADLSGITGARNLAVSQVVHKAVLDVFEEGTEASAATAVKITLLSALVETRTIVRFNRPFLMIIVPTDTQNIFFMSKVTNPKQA
Procedure: as §1, §2

antithrombin III = target: T4, antithrombin III (human, UniProt P01008 33-464)
T4 construct: Serpin, used at 20 µM
Procedure: as §1, §2

T2 sequence (P01009 25-418 limits assumed): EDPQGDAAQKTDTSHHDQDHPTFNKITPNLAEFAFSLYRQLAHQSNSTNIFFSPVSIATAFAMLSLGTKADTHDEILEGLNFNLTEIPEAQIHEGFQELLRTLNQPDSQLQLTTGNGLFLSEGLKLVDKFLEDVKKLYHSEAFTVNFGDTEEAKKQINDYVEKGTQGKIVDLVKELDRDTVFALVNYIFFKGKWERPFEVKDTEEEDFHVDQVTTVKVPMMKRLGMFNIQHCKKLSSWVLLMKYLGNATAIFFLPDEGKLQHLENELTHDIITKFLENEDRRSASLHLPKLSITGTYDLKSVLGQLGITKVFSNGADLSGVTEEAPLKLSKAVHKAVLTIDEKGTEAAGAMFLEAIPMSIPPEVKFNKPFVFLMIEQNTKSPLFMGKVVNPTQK
T4 sequence (P01008 33-464 limits assumed): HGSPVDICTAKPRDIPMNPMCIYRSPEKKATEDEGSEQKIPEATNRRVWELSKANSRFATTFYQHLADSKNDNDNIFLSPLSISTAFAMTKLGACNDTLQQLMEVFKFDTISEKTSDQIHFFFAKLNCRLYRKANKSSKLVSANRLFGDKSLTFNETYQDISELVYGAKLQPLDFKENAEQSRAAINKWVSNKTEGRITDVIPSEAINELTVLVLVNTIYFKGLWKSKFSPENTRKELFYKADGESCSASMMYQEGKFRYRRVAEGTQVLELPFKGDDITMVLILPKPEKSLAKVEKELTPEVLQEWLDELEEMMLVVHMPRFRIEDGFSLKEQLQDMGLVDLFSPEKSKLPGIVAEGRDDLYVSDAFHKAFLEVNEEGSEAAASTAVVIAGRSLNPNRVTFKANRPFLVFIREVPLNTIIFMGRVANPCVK

B1: wild type mature hK2 (prostate-specific glandular kallikrein protein) (enzyme)
chain: not shown
notes: From spent medium of AV12-hK2, PC3-hK2 and DU145-hK2 cells, LNCaP medium, seminal fluid or prostate tissue, depending on the experiment; also called native hK2
B1: binds (alpha 2-antiplasmin); no binding (tested: 20 µM inhibitor, 0.175 µM hK2) [1]; binds (antichymotrypsin (ACT)). B1: no binding (tested: 20 µM inhibitor, 0.175 µM hK2) (antithrombin III).
